In patent US20260355338 (published 2026):
Positions count from the first letter of the chain named.

T1: human EpCAM-mFc (human)
T1 chain: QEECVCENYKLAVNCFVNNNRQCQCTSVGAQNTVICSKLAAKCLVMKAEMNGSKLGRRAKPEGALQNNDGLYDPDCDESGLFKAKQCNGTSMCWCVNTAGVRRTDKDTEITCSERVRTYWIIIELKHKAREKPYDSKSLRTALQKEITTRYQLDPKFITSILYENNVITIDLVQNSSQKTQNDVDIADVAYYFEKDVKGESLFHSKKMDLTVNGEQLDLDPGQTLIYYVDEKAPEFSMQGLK

B1: EP101-3014 (1565-Y) (antibody)
chain 1: QVQLVQSGAEVKKPGASVKVSCKASGYTFTNYYIHWVRQAPGQRLEYIGWIYPGNVYIQYNEKFKGRATLTADKSASTAYMELSSLRSEDTAVYYCARDGYWFAYWGQGTLVTVSS
chain 2: QGQSGQGSWCHSATDTILPCSNGGGSSGGAVGLLAPPGGLSGRSDNIGGSDIVLTQTPLSLSVTPGQPASISCRSSRSLLHSDGFTYLYWFLQKPGQSPQLLIYQTSNLASGVPDRFSSSGSGTDFTLKISRVEAEDVGVYYCAQNLELPNTFGQGTKLEIK
B2: EP04-3014 (1565-Y) (antibody)
chain 1: B1 chain 1
chain 2: QGQSGQGWCPRLFDRPSMGCPTGGGSSGGAVGLLAPPGGLSGRSDNIGGSDIVLTQTPLSLSVTPGQPASISCRSSRSLLHSDGFTYLYWFLQKPGQSPQLLIYQTSNLASGVPDRFSSSGSGTDFTLKISRVEAEDVGVYYCAQNLELPNTFGQGTKLEIK
B3: EP109-3014 (1361-H) (antibody)
chain 1: B1 chain 1 with Y33H, Y101P
chain 2: QGQSGQGPNTCMSERRICSLTYGGGSSGGAVGLLAPPGGLSGRSDNIGGSDIVLTQTPLSLSVTPGQPASISCRSSRSLLHSDGFTYLYWFLQKPGQSPQLLIYQTSNLASGVPDRFSSSGSGTDFTLKISRVEAEDVGVYYCAQNLELPNTFGQGTKLEIK
B4: EP03-3014 (1565-Y) (antibody)
chain 1: B1 chain 1
chain 2: B1 chain 2 with S8H, W9Y, A13R, L18T, P19H, S21N, N22A
B5: EP01-3014 (1565-Y) (antibody)
chain 1: B1 chain 1
chain 2: QGQSGQGPLMTCSDYYTCKNNLGGGSSGGAVGLLAPPGGLSGRSDNIGGSDIVLTQTPLSLSVTPGQPASISCRSSRSLLHSDGFTYLYWFLQKPGQSPQLLIYQTSNLASGVPDRFSSSGSGTDFTLKISRVEAEDVGVYYCAQNLELPNTFGQGTKLEIK
B6: EP11-3014 (1565-Y) (antibody)
chain 1: B1 chain 1
chain 2: QGQSGQGFICPTLYDRPHCMHTGGGSSGGAVGLLAPPGGLSGRSDNIGGSDIVLTQTPLSLSVTPGQPASISCRSSRSLLHSDGFTYLYWFLQKPGQSPQLLIYQTSNLASGVPDRFSSSGSGTDFTLKISRVEAEDVGVYYCAQNLELPNTFGQGTKLEIK
B7: EP05-3014 (1361-H) (antibody)
chain 1: B1 chain 1 with Y33H, Y101P
chain 2: QGQSGQGWWPPCQGGAWCEQRIGGGSSGGAVGLLAPPGGLSGRSDNIGGSDIVLTQTPLSLSVTPGQPASISCRSSRSLLHSDGFTYLYWFLQKPGQSPQLLIYQTSNLASGVPDRFSSSGSGTDFTLKISRVEAEDVGVYYCAQNLELPNTFGQGTKLEIK
B8: EP107-3-3014 (1361-H) (antibody)
chain 1: B1 chain 1 with Y33H, Y101P
chain 2: QGQSGQGSLPCSYMHPYCFYNSGGGSSGGAVGLLAPPGGLSGRSDNIGGSDIVLTQTPLSLSVTPGQPASISCRSSRSLLHSDGFTYLYWFLQKPGQSPQLLIYQTSNLASGVPDRFSSSGSGTDFTLKISRVEAEDVGVYYCAQNLELPNTFGQGTKLEIK
B9: EP102-3014 (1565-Y) (antibody)
chain 1: B1 chain 1
chain 2: QGQSGQGSPACSDRYYQTCVLNGGGSSGGAVGLLAPPGGLSGRSDNIGGSDIVLTQTPLSLSVTPGQPASISCRSSRSLLHSDGFTYLYWFLQKPGQSPQLLIYQTSNLASGVPDRFSSSGSGTDFTLKISRVEAEDVGVYYCAQNLELPNTFGQGTKLEIK

Target: T1, human EpCAM-mFc
Assay: ELISA

Binder | Kd
B1 | 389 nM
B2 | 26.9 nM
B3 | 512 nM
B4 | 64.4 nM
B5 | 0.66 nM
B6 | 38 nM
B7 | 0.46 nM
B8 | 44 nM
B9 | 72.5 nM
